Legend:
hAng-1-WT = target: T1, hAng-1-WT (human, UniProt Q15389 20-498, limits assumed); assay: SPR, 1 uM blocker premixed with 10 nM hAng-1-WT, over hTie-2-mFc surface; RU of hAng-1 bound
T1 construct: a tag is not mentioned there; also called full-length wild-type human Ang-1
T1 sequence (looked up): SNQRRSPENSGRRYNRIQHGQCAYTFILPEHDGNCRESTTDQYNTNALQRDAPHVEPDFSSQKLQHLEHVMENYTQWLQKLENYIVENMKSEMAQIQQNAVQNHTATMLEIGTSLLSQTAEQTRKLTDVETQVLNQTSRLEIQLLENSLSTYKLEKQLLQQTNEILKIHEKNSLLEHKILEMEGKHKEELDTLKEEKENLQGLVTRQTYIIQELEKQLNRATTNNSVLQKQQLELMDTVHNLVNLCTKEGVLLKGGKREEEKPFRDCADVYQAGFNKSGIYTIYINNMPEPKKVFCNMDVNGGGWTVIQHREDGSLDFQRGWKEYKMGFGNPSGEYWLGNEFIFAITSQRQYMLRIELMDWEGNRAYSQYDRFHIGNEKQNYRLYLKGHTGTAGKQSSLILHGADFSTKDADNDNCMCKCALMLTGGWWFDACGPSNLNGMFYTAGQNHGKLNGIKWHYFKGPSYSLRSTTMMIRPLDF
Procedure: In this experiment, a human Tie-2 full-length extracellular domain construct (hTie-2-mFc-ecto) was amine-coupled on a BIACORE™ chip to create a receptor coated surface. […] The equilibrated solutions were injected over the receptor surfaces at 5 μL/min for 5 minutes at 25° C.

Mouse Ang-2FD-hFc = target: T2, Mouse Ang-2FD-hFc (mouse (Mus musculus)); assay: blocking ELISA, 16.67 nM antibody, Ang-2FD-hFc to coated hTie-2-mFc
T2 construct: also called dimeric mouse Ang-2FD
T2 sequence (chain, as listed by the source limits assumed): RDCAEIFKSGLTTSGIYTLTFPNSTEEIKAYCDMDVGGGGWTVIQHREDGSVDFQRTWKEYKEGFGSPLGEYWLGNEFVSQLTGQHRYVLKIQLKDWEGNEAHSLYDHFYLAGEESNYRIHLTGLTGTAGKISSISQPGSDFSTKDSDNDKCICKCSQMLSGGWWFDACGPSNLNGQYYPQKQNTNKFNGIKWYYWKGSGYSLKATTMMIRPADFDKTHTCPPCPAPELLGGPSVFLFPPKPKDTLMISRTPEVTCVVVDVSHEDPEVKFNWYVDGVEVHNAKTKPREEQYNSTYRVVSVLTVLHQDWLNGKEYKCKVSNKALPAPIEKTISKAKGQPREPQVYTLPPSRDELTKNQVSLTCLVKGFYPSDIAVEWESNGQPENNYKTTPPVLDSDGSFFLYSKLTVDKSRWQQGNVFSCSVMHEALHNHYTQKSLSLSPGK

B1: H1H744N (antibody, V domains shown)
VH: QVQLVQSGVEVKKPGASVKVSCKTSGYTFSNNGFSWVRQAPGQGLEWLGWISGYNGNTNYAQKFQGRVTMTTDTSTSTAYMELRTLRSDDTAVYYCARDQDYSNFHWLDPWGQGTLVTVAS
VL: DIQMTQSPSSVSASVGDRVIITCRASQGLSSWLAWYQQKPGTAPKLLIHSASSLQTGVPSRFSGSGSGTEFALTINSLQPEDFGTYYCQQANSFPLTFGGGTRVEIK
**Q.** Which “RU (average)” value (hAng-1-WT) does the source give for B1 here?
**A.** 57 RU

**Q.** What about the “Percent Blocking of Ang-2FD Binding to Tie-2” value (Mouse Ang-2FD-hFc) of the same binder?
**A.** 97.6%
